# Results reported in patent publication US20190241648A1 (STATEN BIOTECHNOLOGY B V, published 2019).
# Ends that are not written are not given here.
# B1: anti-ApoC3 antibody 14C7 (antibody, V domains shown)
# VH: QVQVQESGPGLVKPSQTLSLTCTVSGGSITTNSYYWSWIRQPPGKGLEWMGAIDYSGDTYYSPSLKSRTSISRDTSKNQFTLQLTSVTPEDTAVYYCVSRIPTGEYWGQGTQVTVSS
# VL: QTVVTQEPSLSVSPGGTVTLTCGLNSGSVTSSNYPDWYQQTPGQAPRLLIYNTNSRHSGVPSRFSGSISGNKAALTITGAQPEDEADYYCALYMGSDSVVFGGGTHLTVL
# notes: it was detected with goat anti-human IgG (Fc); also called mAb 14C7; llama antibody 14C7
# Columns and labels:
# Experiment in all cases: peptide microarray
# ApoC3 peptide … S48T = ApoC3 peptide … S48T (human, cyclic constrained)
# From the text: (§1) Amino acids G41 and G46 were highly conserved; substitution of G41 by E, N or Q caused a decrease of spot intensities by ˜70% or higher, whereas exchange of G46 by N was hardly tolerated and resulting in 90% reduced spot intensities. […] Amino acid positions V43, D45 and K51 were also well conserved with a clear preference for the wild type amino acids and a certain tolerance particularly for conservative exchanges by Y, F and I (V43), A, E and K (D45) as well as by R (K51). […] Replacement of V43 by Y, however, increased spot intensity by two fold. Amino acid positions W42 and 48S were poorly conserved or even variable; both positions were susceptible for only a number of amino acid exchanges, and exchange by F, S and T (W42) or by E (S48) even caused a two- to three-fold increase of spot intensity. Amino acid positions A39 and R40 were variable.
# (§2) Pre: staining of one of the ApoC3 peptide microarrays was done with the secondary antibody goat anti-human IgG (Fe) DyLight680 (1:5000) and control antibody mouse monoclonal anti-HA (12CA5) DyLight800 (1:2000) to investigate background interactions of the secondary antibody with the antigen-derived peptides that could interfere with the main assays. Subsequent incubation of other ApoC3 peptide microarrays with antibody samples was followed by staining with secondary and control antibodies as well as read-out at scanning intensities of 7/7 (red/green). The additional HA peptides framing the peptide arrays were stained as internal quality control to confirm the assay quality and the peptide microarray integrity.
# ApoC3 peptide … S49V = target: T1, ApoC3 peptide … S49V (human, not fully specified (bridges); also: cyclic constrained)
# T1 peptide: ARGWVTDGFSVLK
# From the text: as §1, §2
# ApoC3 peptide … T44K = target: T2, ApoC3 peptide … T44K (human, not fully specified (bridges); also: cyclic constrained)
# T2 peptide: ARGWVKDGFSSLK
# From the text: as §1, §2
# ApoC3 peptide … W42A = target: T3, ApoC3 peptide … W42A (human, not fully specified (bridges); also: cyclic constrained)
# T3 peptide: ARGAVTDGFSSLK
# From the text: as §1, §2
# ApoC3 peptide … D45L = target: T4, ApoC3 peptide … D45L (human, cyclic constrained)
# T4 peptide: ARGWVTLGFSSLK
# From the text: as §1, §2
# ApoC3 peptide … L50E = target: T5, ApoC3 peptide … L50E (human, not fully specified; cyclic constrained)
# T5 peptide: ARGWVTDGFSSEK
# From the text: as §1, §2
# ApoC3 peptide … T44E = target: T6, ApoC3 peptide … T44E (human, not fully specified (bridges); also: cyclic constrained)
# T6 peptide: ARGWVEDGFSSLK
# From the text: as §1, §2
# ApoC3 peptide … S49I = target: T7, ApoC3 peptide … S49I (human, cyclic constrained)
# T7 peptide: ARGWVTDGFSILK
# From the text: as §1, §2
# ApoC3 peptide … S49A = target: T8, ApoC3 peptide … S49A (human, not fully specified (bridges); also: cyclic constrained)
# T8 peptide: ARGWVTDGFSALK
# From the text: as §1, §2
# ApoC3 peptide … D45V = target: T9, ApoC3 peptide … D45V (human, cyclic constrained)
# T9 peptide: ARGWVTVGFSSLK
# From the text: as §1, §2
# ApoC3 peptide … S48P = ApoC3 peptide … S48P (human, cyclic constrained)
# From the text: as §1, §2
# ApoC3 peptide … W42M = target: T10, ApoC3 peptide … W42M (human, not fully specified (bridges); also: cyclic constrained)
# T10 peptide: ARGMVTDGFSSLK
# From the text: as §1, §2
# ApoC3 peptide … A39V = target: T11, ApoC3 peptide … A39V (human, not fully specified (bridges); also: cyclic constrained)
# T11 peptide: VRGWVTDGFSSLK
# From the text: as §1, §2
# ApoC3 peptide … A39N = target: T12, ApoC3 peptide … A39N (human, cyclic constrained)
# T12 peptide: NRGWVTDGFSSLK
# From the text: as §1, §2
# ApoC3 peptide … R40T = target: T13, ApoC3 peptide … R40T (human, not fully specified (bridges); also: cyclic constrained)
# T13 peptide: ATGWVTDGFSSLK
# From the text: as §1, §2
# ApoC3 peptide … G41R = target: T14, ApoC3 peptide … G41R (human, also: cyclic constrained)
# T14 peptide: ARRWVTDGFSSLK
# From the text: as §1, §2
# ApoC3 peptide … A39F = target: T15, ApoC3 peptide … A39F (human, cyclic constrained)
# T15 peptide: FRGWVTDGFSSLK
# From the text: as §1, §2
# ApoC3 peptide … L50K = target: T16, ApoC3 peptide … L50K (human, not fully specified; cyclic constrained)
# T16 peptide: ARGWVTDGFSSKK
# From the text: as §1, §2
# ApoC3 peptide … R40Q = target: T17, ApoC3 peptide … R40Q (human, not fully specified (bridges); also: cyclic constrained)
# T17 peptide: AQGWVTDGFSSLK
# From the text: as §1, §2
# ApoC3 peptide … V43R = target: T18, ApoC3 peptide … V43R (human, not fully specified (bridges); also: cyclic constrained)
# T18 peptide: ARGWRTDGFSSLK
# From the text: as §1, §2
# ApoC3 peptide … G46A = target: T19, ApoC3 peptide … G46A (human, also: cyclic constrained)
# T19 peptide: ARGWVTDAFSSLK
# From the text: as §1, §2
# ApoC3 peptide … R40G = target: T20, ApoC3 peptide … R40G (human, not fully specified (bridges); also: cyclic constrained)
# T20 peptide: AGGWVTDGFSSLK
# From the text: as §1, §2
# ApoC3 peptide … W42F = target: T21, ApoC3 peptide … W42F (human, not fully specified (bridges); also: cyclic constrained)
# T21 peptide: ARGFVTDGFSSLK
# From the text: as §1, §2
# ApoC3 peptide … A39C = target: T22, ApoC3 peptide … A39C (human, cyclic constrained)
# T22 peptide: CRGWVTDGFSSLK
# From the text: as §1, §2
# ApoC3 peptide … W42E = target: T23, ApoC3 peptide … W42E (human, not fully specified (bridges); also: cyclic constrained)
# T23 peptide: ARGEVTDGFSSLK
# From the text: as §1, §2
# ApoC3 peptide … S49K = target: T24, ApoC3 peptide … S49K (human, cyclic constrained)
# T24 peptide: ARGWVTDGFSKLK
# From the text: as §1, §2
# ApoC3 peptide … K51F = target: T25, ApoC3 peptide … K51F (human, thioether (positions not given here); also: cyclic constrained)
# T25 peptide: ARGWVTDGFSSLF
# From the text: as §1, §2
# ApoC3 peptide … F47C = target: T26, ApoC3 peptide … F47C (human, not fully specified (bridges); also: cyclic constrained)
# T26 peptide: ARGWVTDGCSSLK
# From the text: as §1, §2
# ApoC3 peptide … T44W = target: T27, ApoC3 peptide … T44W (human, not fully specified (bridges); also: cyclic constrained)
# T27 peptide: ARGWVWDGFSSLK
# From the text: as §1, §2
# ApoC3 peptide … F47A = target: T28, ApoC3 peptide … F47A (human, not fully specified (bridges); also: cyclic constrained)
# T28 peptide: ARGWVTDGASSLK
# From the text: as §1, §2
# ApoC3 peptide … D45K = target: T29, ApoC3 peptide … D45K (human, cyclic constrained)
# T29 peptide: ARGWVTKGFSSLK
# From the text: as §1, §2
binder,measurement,setting,value
B1,% of binding to wild-type peptide,ApoC3 peptide … S48T,88.3%
same,% of binding to wild-type peptide,ApoC3 peptide … S49V,0.59%
same,% of binding to wild-type peptide,ApoC3 peptide … T44K,0%
same,% of binding to wild-type peptide,ApoC3 peptide … W42A,116%
same,% of binding to wild-type peptide,ApoC3 peptide … D45L,17.1%
same,% of binding to wild-type peptide,ApoC3 peptide … L50E,0%
same,% of binding to wild-type peptide,ApoC3 peptide … T44E,0%
same,% of binding to wild-type peptide,ApoC3 peptide … S49I,0%
same,% of binding to wild-type peptide,ApoC3 peptide … S49A,2.43%
same,% of binding to wild-type peptide,ApoC3 peptide … D45V,1.21%
same,% of binding to wild-type peptide,ApoC3 peptide … S48P,0.06%
same,% of binding to wild-type peptide,ApoC3 peptide … W42M,79.4%
same,% of binding to wild-type peptide,ApoC3 peptide … A39V,76%
same,% of binding to wild-type peptide,ApoC3 peptide … A39N,103%
same,% of binding to wild-type peptide,ApoC3 peptide … R40T,38.7%
same,% of binding to wild-type peptide,ApoC3 peptide … G41R,19.4%
same,% of binding to wild-type peptide,ApoC3 peptide … A39F,78.2%
same,% of binding to wild-type peptide,ApoC3 peptide … L50K,0.74%
same,% of binding to wild-type peptide,ApoC3 peptide … R40Q,85.8%
same,% of binding to wild-type peptide,ApoC3 peptide … V43R,15.1%
same,% of binding to wild-type peptide,ApoC3 peptide … G46A,0%
same,% of binding to wild-type peptide,ApoC3 peptide … R40G,62.9%
same,% of binding to wild-type peptide,ApoC3 peptide … W42F,242%
same,% of binding to wild-type peptide,ApoC3 peptide … A39C,77.5%
same,% of binding to wild-type peptide,ApoC3 peptide … W42E,98.5%
same,% of binding to wild-type peptide,ApoC3 peptide … S49K,3.23%
same,% of binding to wild-type peptide,ApoC3 peptide … K51F,6.24%
same,% of binding to wild-type peptide,ApoC3 peptide … F47C,0%
same,% of binding to wild-type peptide,ApoC3 peptide … T44W,0%
same,% of binding to wild-type peptide,ApoC3 peptide … F47A,0%
same,% of binding to wild-type peptide,ApoC3 peptide … D45K,39.4%
